For assay [1], the target named is T1, ActRIIA and ActRIIB (on TGFB/SMAD SBE Reporter HEK293 cells) (human). Briefly: cell-based or functional assay.
In assay [2] the target is T1, ActRIIA and ActRIIB (on TGFB/SMAD SBE …). Briefly: cell-based or functional assay. The source holds these as a separate data set.
The target is the same in assay [3]. Description: cell-based or functional assay. This is another data set of the same source.
Assay [4] shares this target. Description: cell-based or functional assay. The source holds these as a separate data set.
For assay [5] the target is unchanged. Description: cell-based or functional assay. The source holds these as a separate data set.
For assay [6] the target is unchanged.
The target is the same in assay [7]. This is another data set of the same source.
In assay [8] the target is T2, human ActRIIB (human, UniProt Q13705 19-137, limits assumed).
T2 construct: antigen in MSD-SET; also called ACVR2B; ActR2B
T2 sequence: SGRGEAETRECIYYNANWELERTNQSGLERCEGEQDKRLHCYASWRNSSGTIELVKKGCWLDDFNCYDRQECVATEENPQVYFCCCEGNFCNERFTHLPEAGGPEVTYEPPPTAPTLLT
Description: MSD-SET.

The target of assay [9] is T3, human ActRIIA (human, UniProt P27037 20-135, limits assumed).
T3 construct: antigen in MSD-SET; also called ACVR2A; ActR2A
Briefly: MSD-SET.

The target in assay [10] is T2, human ActRIIB. Description: MSD-SET. This is another data set of the same source.
Assay [11] addresses T3, human ActRIIA. Description: MSD-SET. This is another data set of the same source.
Assay [12] deals with T3, human ActRIIA. Description: MSD-SET. This is another data set of the same source.
Assay [13] addresses T3, human ActRIIA. Description: MSD-SET. The source holds these as a separate data set.
The target of assay [14] is T2, human ActRIIB. Description: MSD-SET. This is another data set of the same source.
The target in assay [15] is T2, human ActRIIB. Description: MSD-SET, preliminary.
Assay [16] deals with T2, human ActRIIB. Description: MSD-SET. The source holds these as a separate data set.
The target in a further assay is mouse ActRIIA (mouse, UniProt P27038 20-135, limits assumed). Briefly: MSD-SET.
The next assay has as its target Pig ActRIIA (pig, UniProt F1S0H6 20-135). Description: MSD-SET.
The target in assay [17] is T3, human ActRIIA. Description: MSD-SET. The source holds these as a separate data set.
Assay [18] has as its target T3, human ActRIIA. Description: MSD-SET, preliminary.

The results in this text go back to US20250243286A1 (SIXPEAKS BIO, published 2025).

Like-named read-outs stand apart in the source and are kept apart here.

As usually defined, the Kd is the constant that tells how readily two partners part at equilibrium. A higher Kd goes with lower affinity.

T3 sequence (P27037 20-135 limits assumed): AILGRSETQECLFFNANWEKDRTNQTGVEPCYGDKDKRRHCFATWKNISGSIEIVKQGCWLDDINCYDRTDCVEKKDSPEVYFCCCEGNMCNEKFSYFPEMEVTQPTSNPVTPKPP
mouse ActRIIA, sequence (P27038 20-135 limits assumed): as the sequence (P27037 20-135 limits assumed) above, with K20R, V73I counted along it

B1: Bimagrumab (antibody, V domains shown)
VH: QVQLVQSGAEVKKPGASVKVSCKASGYTFTSSYINWVRQAPGQGLEWMGTINPVSGSTSYAQKFQGRVTMTRDTSISTAYMELSRLRSDDTAVYYCARGGWFDYWGQGTLVTVSS
VL: QSALTQPASVSGSPGQSITISCTGTSSDVGSYNYVNWYQQHPGKAPKLMIYGVSKRPSGVSNRFSGSKSGNTASLTISGLQAEDEADYYCGTFAGGSYYGVFGGGTKLTVL
In the case of B1, the IC50, Activin SMAD RGA in assay [1] was found to be 0.5 nM. In assay [2], this molecule came in with an IC50 [nM] (assay not given) of 0.294 nM and an IC90 [nM] (assay not given) of 6.57 nM. For the same molecule, in [3], the IC50, Activin SMAD RGA worked out at 0.32 nM; the IC95, Activin SMAD RGA amounted to 19.6 nM; the IC99, Activin SMAD RGA worked out at 206 nM. Moreover, in [4], the IC50, Myostatin SMAD RGA is 0.292 nM. Besides, in assay [5], the IC50, Myostatin SMAD RGA turned out to be 0.56 nM; the IC50, myostatin inhibition (SMAD RGA) worked out at 0.292 nM; the IC50 [nM] (assay not given) is 0.517 nM; the IC90, Activin SMAD RGA came out at 9.38 nM. In assay [5], this molecule yielded an IC90, Myostatin SMAD RGA of 13.5 nM; an IC90 [nM] (assay not given) of 8.07 nM; an IC95, Activin SMAD RGA of 37.9 nM; an IC95, Myostatin SMAD RGA of 55.2 nM. In assay [5], the IC99, Activin SMAD RGA came out at 829 nM and the IC99, Myostatin SMAD RGA came to 2680 nM. This molecule also showed an IC50 (read off the curve); Myostatin-stimulated SMAD reporter gene assay in assay [6] of 0.4 nM. The IC50 (read off the curve); Activin-stimulated SMAD reporter gene assay in [7] was determined as 0.3 nM.

B2: Antibody Rippla (antibody, V domains shown)
VH: QVQLVQSGAEVRKPGASVKVSCKASGYTFTSSYINWVRQAPGQGLEWMGTINPVSGSTSYAQKFQGRVTMTRDTSISTAYMELSRLRSDDTAVYYCARGGWFDYWGQGTLVTVSS
VL: QSALTQPASVSGSPGQSITISCTGTSSDVGSYNRVNWYQQHPGKAPKLMIYGVSKRESGVSNRFSGSKSGNTASLTISGLQAEDEADYYCGTFAGGRYYGVFGGGTKLTVL
notes: full-length IgG; also called Ripp1a
As for B2, in assay [1], the IC50, Activin SMAD RGA came out at 0.09 nM and the IC50, Myostatin SMAD RGA was determined as 0.15 nM. This molecule showed a dissociation constant (Kd) with human ActRIIB [8] of 5 pM. In the assay with human ActRIIA [9], this molecule came in with a Kd of 0.042 nM. In [5], the IC50, Activin SMAD RGA amounted to 0.0582 nM; the IC50, Myostatin SMAD RGA came to 0.213 nM; the IC50 [nM] (assay not given) came out at 0.0209 nM; the IC50 fold difference to bimagrumab (assay not given) stood at 25.6 fold. In [5], this molecule returned an IC90, Activin SMAD RGA of 1.58 nM; an IC90, Myostatin SMAD RGA of 9.65 nM; an IC90 [nM] (assay not given) of 1.27 nM; an IC90 fold difference to bimagrumab (assay not given) of 6.33 fold. This molecule also came in with an IC50 (read off the curve); Myostatin-stimulated SMAD reporter gene assay in assay [6] of 0.2 nM. For the same molecule, in the assay with human ActRIIB [10], the Kd is 5 pM. This molecule registered a Kd in the assay with human ActRIIA [11] of 0.041 nM. Further, in the assay with human ActRIIA [12], the “Fold Difference to bimagrumab” value came to 4 fold and the affinity, expressed as Kd, was 0.041 nM. For the same molecule, the IC50 (read off the curve); Activin-stimulated SMAD reporter gene assay in assay [7] is 0.2 nM.

B3: Antibody Bäratatza (antibody, V domains shown)
VH: QVQLVQSGAEVKKPGASVKVSCKASGYTFTSSYINWVRQAPGQGLEWMGTINAVSGSTSYAQKFQGRVTMTRDTSISTAYMELSRLRSDDTAVYYCARSGWFDYWGQGTLVTVSS
VL: QSALTQPASVSGSPGQSITISCTGTSSDVGSYNYVNWYQQHPGKAPKLMIYGVSKQQSGVSNRFSGSKSGNTASLTISGLQAEDEADYYCGTFAGGSYYGVFGGGTKLTVL
notes: full-length IgG
As to B3, in the assay with human ActRIIA [13], the “Fold Difference to bimagrumab” value was found to be 49.5 fold and binding was characterised by a dissociation constant (Kd) of 0.023 nM. For the same molecule, in assay [2], the IC50 [nM] (assay not given) was 0.105 nM, the IC50 fold difference to bimagrumab (assay not given) came out at 2.8 fold, the IC90 [nM] (assay not given) is 2.77 nM and the IC90 fold difference to bimagrumab (assay not given) came to 2.4 fold. In [5], the IC50, Activin SMAD RGA was determined as 0.138 nM; the IC50, Myostatin SMAD RGA was 0.0537 nM; the IC90, Activin SMAD RGA is 2.14 nM; the IC90, Myostatin SMAD RGA was found to be 0.491 nM. Moreover, the Kd with human ActRIIB [10] worked out at 5 pM. For the same molecule, in the assay with human ActRIIA [11], binding was put at a Kd of 0.023 nM.

B4: Ofaschlupfer Fab (Fab, V domains shown)
VH: QVQLVQSGAEVKKPGSSVKVSCKASGYTFTSSYINWVRQAPGQGLEWMGTINAVSGSTSYAQKFQGRVTITADTSTSTAYMELSSLRSEDTAVYYCARGGWFDYWGQGTLVTVSS
VL: QSALTQPRSVSGSPGQSVTISCTGTSSDVGSKNYVNWYQQHPGKAPKLMIYGVSKRESGVPDRFSGSKSGNTASLTISGLQAEDEADYYCGTFAGGKYYGVFGGGTKLTVL
notes: Fab
Turning to B4, the Kd with human ActRIIB [14] amounted to 3.3 pM; with human ActRIIB [15], 0.0253 nM; with human ActRIIB [16], 2 pM; with mouse ActRIIA, 0.018 nM; with Pig ActRIIA, 0.01 nM.

B5: Antibody Fasnetsküchla (antibody, V domains shown)
VH: QVQLVQSGAEVKKPGASVKVSCKASGYTFTSSYINWVRQAPGQGLEWMGTINAVSGSTSYAQKFQGRVTMTRDTSISTAYMELSRLRSDDTAVYYCARGGWFDYWGQGTLVTVSS
VL: QSALTQPASVSGSPGQSITISCTGTSSDVGSANYVNWYQQHPGKAPKPMIYGVSRRPSGVSNRFSGSKSGNTASLTISGLQAEDEADYYCGTFAGGKYYGVFGGGTKLTVL
notes: full-length IgG
For the molecule B5, the results for the IC50, Activin SMAD RGA in [1] and in assay [5] were 0.43 nM and 0.347 nM, respectively. For the same molecule, the IC50, Myostatin SMAD RGA in assay [1] was determined as 0.48 nM; in [5], 0.513 nM. Also, the Kd amounted to 8 pM with human ActRIIB [8], 0.029 nM in the assay with human ActRIIA [9], 8 pM with human ActRIIB [10] and 0.029 nM in the assay with human ActRIIA [11]. In assay [5], this molecule came in with an IC90, Activin SMAD RGA of 3.82 nM. In assay [5], the IC90, Myostatin SMAD RGA came out at 4.63 nM. For the same molecule, the IC50 (read off the curve); Myostatin-stimulated SMAD reporter gene assay in assay [6] came to 0.7 nM. Besides, the IC50 (read off the curve); Activin-stimulated SMAD reporter gene assay in assay [7] stood at 0.3 nM.

B6: Antibody Bäradreck (antibody, V domains shown)
VH: QVQLVQSGAEVKKPGSSVKVSCKASGYTFTSSYINWVRQAPGQGLEWMGTINPVSGSTSYAQKFQGRVTITADTSTSTAYMELSSLRSEDTAVYYCARGGWFDYWGQGTLVTVSS
VL: QSALTQPRSVSGSPGQSVTISCTGTSSDVGSYNYVNWYQQHPGKAPKLMIYGVSKRPSGVPDRFSGSKSGNTASLTISGLQAEDEADYYCGTFAGGSYYGVFGGGTKLTVL
notes: full-length IgG
B6: in assay [5], the IC50, Activin SMAD RGA stood at 0.257 nM; the IC50, Myostatin SMAD RGA amounted to 0.255 nM; the IC50, myostatin inhibition (SMAD RGA) stood at 0.255 nM; the IC90, Activin SMAD RGA was determined as 4.99 nM. This molecule also displayed an IC90, Myostatin SMAD RGA in assay [5] of 4.05 nM. For the same molecule, binding in the assay with human ActRIIB [14] was characterised by a dissociation constant (Kd) of 63.8 pM. Besides, the Kd with human ActRIIA [17] was 0.112 nM. In addition, in the assay with human ActRIIB [15], the Kd amounted to 0.0638 nM. The molecule also registered an equilibrium dissociation constant (Kd) in the assay with human ActRIIA [18] of 0.112 nM.

B7: Bebballesgmias Fab (Fab, V domains shown)
VH: QVQLVQSGAEVKKPGSSVKVSCKASGYKFTSSYINWVRQAPGQGLEWMGTINPVSGSTSYAQKFQGRVTITADTSTSTAYMELSSLRSEDTAVYYCARGGWFDYWGQGTLVTVSS
VL: QSALTQPRSVSGSPGQSVTISCTGTSSDVGSYNYVNWYQQHPGKAPKLMIYGVSKRPRGVPDRFSGSKSGNTASLTISGLQAEDEADYYCGTFAGGSYYGVFGGGTKLTVL
notes: Fab
Take B7: the results for the Kd in the assay with human ActRIIA [17], in the assay with human ActRIIB [15] and with human ActRIIA [18] were 0.285 nM, 0.0251 nM and 0.285 nM, respectively.

B8: Bäradreck Fab (Fab, V domains shown)
VH: QVQLVQSGAEVKKPGSSVKVSCKASGYTFTSSYINWVRQAPGQGLEWMGTINPVSGSTSYAQKFQGRVTITADTSTSTAYMELSSLRSEDTAVYYCARGGWFDYWGQGTLVTVSS
VL: QSALTQPRSVSGSPGQSVTISCTGTSSDVGSYNYVNWYQQHPGKAPKLMIYGVSKRPSGVPDRFSGSKSGNTASLTISGLQAEDEADYYCGTFAGGSYYGVFGGGTKLTVL
notes: Fab
On to B8, for which the Kd with human ActRIIB [14] was found to be 1.4 pM; with human ActRIIA [17] it was 0.655 nM; with human ActRIIB [15], 0.0563 nM; with human ActRIIA [18], 0.655 nM.
